Assay results published in article PMC12338864, “Modifications in FLAP's second cytosolic loop influence 5‐LOX interaction, inhibitor binding, and leukotriene formation” (Febs Letters, 2025).

Experiments:
FLAP(S108Δ) (human) = target: T1, FLAP(S108Δ) (human) (UniProt P20292)
T1 sequence: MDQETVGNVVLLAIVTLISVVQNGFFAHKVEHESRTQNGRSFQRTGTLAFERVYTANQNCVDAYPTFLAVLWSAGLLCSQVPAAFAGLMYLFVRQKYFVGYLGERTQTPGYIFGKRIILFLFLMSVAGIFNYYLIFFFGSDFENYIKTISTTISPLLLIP

FLAP(S108D) = target: T2, FLAP(S108D) (human, UniProt P20292 1-161, S108D); test: cell-based or functional assay
T2 sequence (looked up): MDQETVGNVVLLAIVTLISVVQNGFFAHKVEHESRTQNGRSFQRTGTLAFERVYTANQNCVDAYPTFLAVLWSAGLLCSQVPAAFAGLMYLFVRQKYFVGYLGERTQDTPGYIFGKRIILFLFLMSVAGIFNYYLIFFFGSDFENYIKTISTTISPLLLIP

FLAP(T109C) = target: T3, FLAP(T109C) (human, UniProt P20292 1-161, T109C); test: cell-based or functional assay
T3 sequence (looked up): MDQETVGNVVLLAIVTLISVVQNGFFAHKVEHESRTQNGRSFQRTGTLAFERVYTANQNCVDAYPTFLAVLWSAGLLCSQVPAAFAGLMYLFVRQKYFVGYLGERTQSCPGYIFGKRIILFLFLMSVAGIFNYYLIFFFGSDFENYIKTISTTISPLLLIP

FLAP(S41D) = target: T4, FLAP(S41D) (human, UniProt P20292 1-161, S41D); test: cell-based or functional assay
T4 sequence (looked up): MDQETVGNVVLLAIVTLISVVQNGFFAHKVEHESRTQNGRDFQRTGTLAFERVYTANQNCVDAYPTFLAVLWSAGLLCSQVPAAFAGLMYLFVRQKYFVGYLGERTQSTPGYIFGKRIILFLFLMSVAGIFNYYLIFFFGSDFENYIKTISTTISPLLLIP

- ratio of 5‐H(P)ETE to trans‐isomers of LTB4 formed in HEK293 cells co-expressing 5-LOX and the FLAP mutant (2.5 μM A23187 plus 2 μM AA, vehicle); wildtype about 1.2 (FLAP(S108Δ) (human)): 3.2
- ratio of 5‐H(P)ETE to trans‐isomers of LTB4 formed in HEK293 cells co-expressing 5-LOX and the FLAP mutant (2.5 μM A23187 plus 2 μM AA, vehicle); wildtype about 1.2 (FLAP(S108D)): 2
- ratio of 5‐H(P)ETE to trans‐isomers of LTB4 formed in HEK293 cells co-expressing 5-LOX and the FLAP mutant (2.5 μM A23187 plus 2 μM AA, vehicle); wildtype about 1.2 (FLAP(T109C)): 2.6
- ratio of 5‐H(P)ETE to trans‐isomers of LTB4 formed in HEK293 cells co-expressing 5-LOX and the FLAP mutant (2.5 μM A23187 plus 2 μM AA, vehicle); wildtype about 1.2 (FLAP(S41D)): 2.3
B1: 5-lipoxygenase (enzyme, human, UniProt P09917 1-674, looked up)
chain: MPSYTVTVATGSQWFAGTDDYIYLSLVGSAGCSEKHLLDKPFYNDFERGAVDSYDVTVDEELGEIQLVRIEKRKYWLNDDWYLKYITLKTPHGDYIEFPCYRWITGDVEVVLRDGRAKLARDDQIHILKQHRRKELETRQKQYRWMEWNPGFPLSIDAKCHKDLPRDIQFDSEKGVDFVLNYSKAMENLFINRFMHMFQSSWNDFADFEKIFVKISNTISERVMNHWQEDLMFGYQFLNGCNPVLIRRCTELPEKLPVTTEMVECSLERQLSLEQEVQQGNIFIVDFELLDGIDANKTDPCTLQFLAAPICLLYKNLANKIVPIAIQLNQIPGDENPIFLPSDAKYDWLLAKIWVRSSDFHVHQTITHLLRTHLVSEVFGIAMYRQLPAVHPIFKLLVAHVRFTIAINTKAREQLICECGLFDKANATGGGGHVQMVQRAMKDLTYASLCFPEAIKARGMESKEDIPYYFYRDDGLLVWEAIRTFTAEVVDIYYEGDQVVEEDPELQDFVNDVYVYGMRGRKSSGFPKSVKSREQLSEYLTVVIFTASAQHAAVNFGQYDWCSWIPNAPPTMRAPPPTAKGVVTIEQIVDTLPDRGRSCWHLGAVWALSQFQENELFLGMYPEEHFIEKPVKEAMARFRKNLEAIVSVIAERNKKKQLPYYYLSPDRIPNSVAI
